Data on 6 sequences can be found in the supplement of paper PMC5998384.

Series [1] deals with HeLa Kyoto. Briefly: solubility change mitosis vs G1/S (difference of NP-40 vs SDS log2 ratios) (log2 ratio difference); higher = more soluble in mitosis.
Series [2] has as its system HeLa Kyoto. Briefly: melting temperature (median over replicates), in situ; higher = more thermally stable.
In series [3] the test system is HeLa Kyoto. Briefly: solubility in G1/S (NP-40 vs SDS abundance) (log2 ratio); higher = more soluble. Conditions: cell cycle stage: G1/S.
Series [4] relates to HeLa Kyoto. Briefly: thermal stability score vs G1/S (z-score of summed log2 fold changes over temperatures); higher = more thermally stable than in G1/S.
The mark [5] stands for this setting: cell cycle stage: early G1 (4.5 h after nocodazole release).
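Wherever melting temperature (median over replicates), in situ is given: HeLa Kyoto cells synchronized by double thymidine or nocodazole block, proteins quantified by TMT10plex mass spectrometry, three independent biological replicates.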
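Wherever solubility change mitosis vs G1/S (difference of NP-40 vs SDS log2 ratios) is given: synchronized HeLa Kyoto cells (double thymidine block for G1/S, nocodazole release for mitosis), protein amounts in NP-40 versus SDS lysates quantified by mass spectrometry, three biological replicates.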
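Wherever solubility in G1/S (NP-40 vs SDS abundance) is given: HeLa Kyoto cells arrested at G1/S by double thymidine block, proteins quantified by TMT10plex mass spectrometry in mild NP-40 versus SDS extracts, three biological replicates.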
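Wherever thermal stability score vs G1/S (z-score of summed log2 fold changes over temperatures) is given: synchronized HeLa Kyoto cells, proteins quantified by TMT10plex mass spectrometry, three biological replicates, mitosis taken 0.5 h after nocodazole release, G1/S directly after double thymidine block.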

On to “MATKCGNCGPGYSTPLEAMKGPREEIVYLPCIYRNTGTEAPDYLATVDVDPKSPQYCQVIHRLPMPNLKDELHHSGWNTCSSCFGDSTKSRTKLVLPSLISSRIYVVDVGSEPRAPKLHKVIEPKDIHAKCELAFLHTSHCLASGEVMISSLGDVKGNGKGGFVLLDGETFEVKGTWERPGGAAPLGYDFWYQPRHNVMISTEWAAPNVLRDGFNPADVEAGLYGSHLYVWDWQRHEIVQTLSLKDGLIPLEIRFLHNPDAAQGFVGCALSSTIQRFYKNEGGTWSVEKVIQVPPKKVKGWLLPEMPGLITDILLSLDDRFLYFSNWLHGDLRQYDISDPQRPRLTGQLFLGGSIVKGGPVQVLEDEELKSQPEPLVVKGKRVAGGPQMIQLSLDGKRLYITTSLYSAWDKQFYPDLIREGSVMLQVDVDTVKGGLKLNPNFLVDFGKEPLGPALAHELRYPGGDCSSDIWI [SELENBP1]”, for which the “solubility change mitosis (log2)” value in series [1] was -0.131. Besides, the melting temperature came out at 59.7 °C in series [2] (cell cycle stage: G1/S) and 60.9 °C in series [2] (cell cycle stage: mitosis). The “solubility in G1/S (log2)” value in series [3] is 0.265. In addition, the thermal stability score was -0.479 in series [4] (setting [5]) and -0.737 in series [4] (cell cycle stage: mitosis).

With “MATKGGTVKAASGFNAMEDAQTLRKAMKGLGTDEDAIISVLAYRNTAQRQEIRTAYKSTIGRDLIDDLKSELSGNFEQVIVGMMTPTVLYDVQELRRAMKGAGTDEGCLIEILASRTPEEIRRISQTYQQQYGRSLEDDIRSDTSFMFQRVLVSLSAGGRDEGNYLDDALVRQDAQDLYEAGEKKWGTDEVKFLTVLCSRNRNHLLHVFDEYKRISQKDIEQSIKSETSGSFEDALLAIVKCMRNKSAYFAEKLYKSMKGLGTDDNTLIRVMVSRAEIDMLDIRAHFKRLYGKSLYSFIKGDTSGDYRKVLLVLCGGDD [ANXA4]”, the “solubility change mitosis (log2)” value in series [1] was found to be 0.0251. The melting temperature in series [2] (cell cycle stage: G1/S) amounted to 50.1 °C; in series [2] (cell cycle stage: mitosis) it was 50.2 °C. In addition, in series [3], the “solubility in G1/S (log2)” value was found to be 0.48. Also, the thermal stability score in series [4] (setting [5]) is 5.77; in series [4] (cell cycle stage: mitosis), 4.03.

On to “MATLITSTTAATAASGPLVDYLWMLILGFIIAFVLAFSVGANDVANSFGTAVGSGVVTLKQACILASIFETVGSVLLGAKVSETIRKGLIDVEMYNSTQGLLMAGSVSAMFGSAVWQLVASFLKLPISGTHCIVGATIGFSLVAKGQEGVKWSELIKIVMSWFVSPLLSGIMSGILFFLVRAFILHKADPVPNGLRALPVFYACTVGINLFSIMYTGAPLLGFDKLPLWGTILISVGCAVFCALIVWFFVCPRMKRKIEREIKCSPSESPLMEKKNSLKEDHEETKLSVGDIENKHPVSEVGPATVPLQAVVEERTVSFKLGDLEEAPERERLPSVDLKEETSIDSTVNGAVQLPNGNLVQFSQAVSNQINSSGHYQYHTVHKDSGLYKELLHKLHLAKVGDCMGDSGDKPLRRNNSYTSYTMAICGMPLDSFRAKEGEQKGEEMEKLTWPNADSKKRIRMDSYTSYCNAVSDLHSASEIDMSVKAEMGLGDRKGSNGSLEEWYDQDKPEVSLLFQFLQILTACFGSFAHGGNDVSNAIGPLVALYLVYDTGDVSSKVATPIWLLLYGGVGICVGLWVWGRRVIQTMGKDLTPITPSSGFSIELASALTVVIASNIGLPISTTHCKVGSVVSVGWLRSKKAVDWRLFRNIFMAWFVTVPISGVISAAIMAIFRYVILRM [SLC20A1]”, for which, in series [1], the “solubility change mitosis (log2)” value was -0.149. Also, the melting temperature in series [2] (cell cycle stage: mitosis) is 55.9 °C. Moreover, in series [3], the “solubility in G1/S (log2)” value is -0.24. The thermal stability score is 0.26 in series [4] (setting [5]) and -0.79 in series [4] (cell cycle stage: mitosis).

Take “MATLLSHPQQRPPFLRQAIKIRRRRVRDLQDPPPQMAPEIQPPSHHFSPEQRALLYEDALYTVLHRLGHPEPNHVTEASELLRYLQEAFHVEPEEHQQTLQRVRELEKPIFCLKATVKQAKGILGKDVSGFSDPYCLLGIEQGVGVPGGSPGSRHRQKAVVRHTIPEEETHRTQVITQTLNPVWDETFILEFEDITNASFHLDMWDLDTVESVRQKLGELTDLHGLRRIFKEARKDKGQDDFLGNVVLRLQDLRCREDQWYPLEPRTETYPDRGQCHLQFQLIHKRRATSASRSQPSYTVHLHLLQQLVSHEVTQHEAGSTSWDGSLSPQAATVLFLHATQKDLSDFHQSMAQWLAYSRLYQSLEFPSSCLLHPITSIEYQWIQGRLKAEQQEELAASFSSLLTYGLSLIRRFRSVFPLSVSDSPARLQSLLRVLVQMCKMKAFGELCPNTAPLPQLVTEALQTGTTEWFHLKQQHHQPMVQGIPEAGKALLGLVQDVIGDLHQCQRTWDKIFHNTLKIHLFSMAFRELQWLVAKRVQDHTTVVGDVVSPEMGESLFQLYISLKELCQLRMSSSERDGVLALDNFHRWFQPAIPSWLQKTYNEALARVQRAVQMDELVPLGELTKHSTSAVDLSTCFAQISHTARQLDWPDPEEAFMITVKFVEDTCRLALVYCSLIKARARELSSGQKDQGQAANMLCVVVNDMEQLRLVIGKLPAQLAWEALEQRVGAVLEQGQLQNTLHAQLQSALAGLGHEIRTGVRTLAEQLEVGIAKHIQKLVGVRESVLPEDAILPLMKFLEVELCYMNTNLVQENFSSLLTLLWTHTLTVLVEAAASQRSSSLASNRLKIALQNLEICFHAEGCGLPPKALHTATFQALQRDLELQAASSRELIRKYFCSRIQQQAETTSEELGAVTVKASYRASEQKLRVELLSASSLLPLDSNGSSDPFVQLTLEPRHEFPELAARETQKHKKDLHPLFDETFEFLVPAEPCRKAGACLLLTVLDYDTLGADDLEGEAFLPLREVPGLSGSEEPGEVPQTRLPLTYPAPNGDPILQLLEGRKGDREAQVFVRLRRHRAKQASQHALRPAP [UNC13D]”: the “solubility change mitosis (log2)” value in series [1] is -0.0257. For the same sequence, the melting temperature came out at 51.5 °C in series [2] (cell cycle stage: G1/S) and 51.4 °C in series [2] (cell cycle stage: mitosis). In addition, in series [3], the “solubility in G1/S (log2)” value was -0.0281. The figures for the thermal stability score in series [4] (setting [5]) and in series [4] (cell cycle stage: mitosis) were -0.00435 and 0.185, respectively.

Turning to “MATNFLAHEKIWFDKFKYDDAERRFYEQMNGPVAGASRQENGASVILRDIARARENIQKSLAGSSGPGASSGTSGDHGELVVRIASLEVENQSLRGVVQELQQAISKLEARLNVLEKSSPGHRATAPQTQHVSPMRQVEPPAKKPATPAEDDEDDDIDLFGSDNEEEDKEAAQLREERLRQYAEKKAKKPALVAKSSILLDVKPWDDETDMAQLEACVRSIQLDGLVWGASKLVPVGYGIRKLQIQCVVEDDKVGTDLLEEEITKFEEHVQSVDIAAFNKI [EEF1D]”, the “solubility change mitosis (log2)” value in series [1] was found to be 0.255. The melting temperature in series [2] (cell cycle stage: G1/S) and in series [2] (cell cycle stage: mitosis) was 50.6 °C each time. Besides, the “solubility in G1/S (log2)” value in series [3] was determined as 0.332. Further, the thermal stability score in series [4] (setting [5]) stood at 1.79; in series [4] (cell cycle stage: mitosis) it was 2.76.

As for “MATNWGSLLQDKQQLEELARQAVDRALAEGVLLRTSQEPTSSEVVSYAPFTLFPSLVPSALLEQAYAVQMDFNLLVDAVSQNAAFLEQTLSSTIKQDDFTARLFDIHKQVLKEGIAQTVFLGLNRSDYMFQRSADGSPALKQIEINTISASFGGLASRTPAVHRHVLSVLSKTKEAGKILSNNPSKGLALGIAKAWELYGSPNALVLLIAQEKERNIFDQRAIENELLARNIHVIRRTFEDISEKGSLDQDRRLFVDGQEIAVVYFRDGYMPRQYSLQNWEARLLLERSHAAKCPDIATQLAGTKKVQQELSRPGMLEMLLPGQPEAVARLRATFAGLYSLDVGEEGDQAIAEALAAPSRFVLKPQREGGGNNLYGEEMVQALKQLKDSEERASYILMEKIEPEPFENCLLRPGSPARVVQCISELGIFGVYVRQEKTLVMNKHVGHLLRTKAIEHADGGVAAGVAVLDNPYPV [GSS]”, the “solubility change mitosis (log2)” value in series [1] is -0.0933. Moreover, the melting temperature in series [2] (cell cycle stage: G1/S) and in series [2] (cell cycle stage: mitosis) was 58.6 °C throughout. For the same sequence, the “solubility in G1/S (log2)” value in series [3] is 0.238. Also, the thermal stability score in series [4] (setting [5]) is -2.26; in series [4] (cell cycle stage: mitosis), -1.74.
